Experimental data taken from US20260258124A1 (CIMEIO THERAPEUTICS, published 2026).
Residue numbers refer to the chain shown, from its start.

B1: FSI-174 (antibody, human IgG1, V domains shown)
VH: QVQLVQSGAEVKKPGASVKVSCKASGYTFTSYNMHWVRQAPGQGLEWMGVIYSGNGDTSYAQKFQGRVTITADKSTSTAYMELSSLRSEDTAVYYCARERDTRFGNWGQGTLVTVSS
VL: DIVMTQSPLSLPVTPGEPASISCRASESVDIYGQSFMHWYLQKPGQSPQLLIYLASNLESGVPDRFSGSGSGTDFTLKISRVEAEDVGVYYCQQNNEDPYTFGGGTKVEIK
B2: Bellavista (antibody, V domains shown)
VH: B1 VH with N55Q, A61N, Q65K, I70M, A72T, K74T, S84R, R87T, E89D, S117A
VL: EIVLTQSPSSLSASVGDRVTITCRASESVDIYGESFMHWYQQKPGKAPKLLIYLASNLESGVPSRFSGSGSGTDFTLTISSLQPEDFATYYCQQNREEPYTFGQGTKLEIKR
notes: IgG; also called VH1.4/VL1.29
B3: Matterhorn (antibody, V domains shown)
VH: B1 VH with A61N, Q65K, I70M, A72T, K74T, S84R, R87T, E89D, S117A
VL: B2 VL with E34S, R96N, E98D
notes: IgG; also called VH1/VL1.4; VH1/LC1.4
B4: Piz Zupo (antibody, V domains shown)
VH: B1 VH with A61N, Q65K, I70M, A72T, K74T, S84R, R87T, E89D, S117A
VL: B2 VL with E34Q, R96K
notes: IgG; also called VH1/VL1.25
B5: Parrot (antibody, V domains shown)
VH: B1 VH with A61N, Q65K, I70M, A72T, K74T, S84R, R87T, E89D, S117A
VL: B2 VL with E34K, R96N, E98D
notes: IgG; also called VH1/VL1.5
B6: Schreckhorn (antibody, V domains shown)
VH: B1 VH with A61N, Q65K, I70M, A72T, K74T, S84R, R87T, E89D, S117A
VL: B2 VL with E34Y, R96N
notes: IgG; also called VH1/VL1.16
B7: Täschhorn (antibody, V domains shown)
VH: B1 VH with A61N, Q65K, I70M, A72T, K74T, S84R, R87T, E89D, S117A
VL: B2 VL with E34R, R96N, E98D
notes: IgG; also called VH1/VL1.3
B8: Weisshorn (antibody, V domains shown)
VH: B1 VH with A61N, Q65K, I70M, A72T, K74T, S84R, R87T, E89D, S117A
VL: B2 VL with E34Q, R96N, E98D
notes: IgG; also called VH1/VL1.2; VH1/LC1.2
B9: Weissmies (antibody, V domains shown)
VH: B1 VH with N55S, A61N, Q65K, I70M, A72T, K74T, S84R, R87T, E89D, S117A
VL: B2 VL with E34Y, R96N
notes: IgG; also called VH1.2/VL1.16
B10: Zinalrithorn (antibody, V domains shown)
VH: B1 VH with A61N, Q65K, I70M, A72T, K74T, S84R, R87T, E89D, S117A
VL: B2 VL with E34N, N95H, R96N, E98D
notes: IgG; also called VH1/VL1.12
B11: AMG191 (antibody, human IgG1, V domains shown)
VH: B1 VH with A61N, Q65K
VL: DIVMTQSPDSLAVSLGERATINCRASESVDIYGNSFMHWYQQKPGQPPKLLIYLASNLESGVPDRFSGSGSGTDFTLTISSLQAEDVAVYYCQQNNEDPYTFGGGTKVEIKR

What was measured:
[1] = molecular target: T1, CD117 on wild-type cells (TF-1 cells, HSPCs, HSCs) (human, UniProt P10721 26-976); assay: cell-based or functional assay
[2] = molecular target: T1, CD117 on wild-type cells (TF-1 cells, …); assay: cell-based or functional assay; remark: listed apart in the source
[3] = molecular target: T2, human recombinant CD117 (c-Kit) from Sino Biological (Catalog No. 11996-H08H) (human, UniProt P10721 26-524); assay: BLI Octet, set-up as in Example 2
T2 construct: also called soluble antigen
Description: In the main experiment kinetic assays were performed by first capturing IgG using anti-human Fc biosensors. The mAb capture biosensors were then submerged in wells containing different concentrations of antigen (association stage) followed by a dissociation step in running buffer. To allow for double reference correction, IgG-captured sensors were dipped into wells containing only buffer and blank sensors were also dipped into wells containing the antigen. This referencing provided a means of compensating for both the natural dissociation of the capture IgG and non-specific binding of the antigen to the sensor surface. Steps were performed at 25° C. at a constant shaking of 1000 rpm. New sensors were used for each sample. Dissociation rate constants (Kd) were calculated using the ForteBio Data Analysis software. All consumables used were those recommended by ForteBio.
All samples were diluted in freshly prepared running buffer. Antibody variants were immobilized onto the surface of a series of biosensors using the capture methods described. Antigen was passed over the surface to generate a binding response. Binding data for the IgG:antigen interactions were collected at 25° C. on the biosensors. A dilution series of the antigen was used in the association step, in order to fit results globally and get the best values for ka, kd, and KD. The response data for the binding of antigen to the surface immobilized IgG were fitted to a 1:1 binding model. HC0 LC0 refers to murine SR-1.

T2 sequence (P10721 26-524 limits assumed): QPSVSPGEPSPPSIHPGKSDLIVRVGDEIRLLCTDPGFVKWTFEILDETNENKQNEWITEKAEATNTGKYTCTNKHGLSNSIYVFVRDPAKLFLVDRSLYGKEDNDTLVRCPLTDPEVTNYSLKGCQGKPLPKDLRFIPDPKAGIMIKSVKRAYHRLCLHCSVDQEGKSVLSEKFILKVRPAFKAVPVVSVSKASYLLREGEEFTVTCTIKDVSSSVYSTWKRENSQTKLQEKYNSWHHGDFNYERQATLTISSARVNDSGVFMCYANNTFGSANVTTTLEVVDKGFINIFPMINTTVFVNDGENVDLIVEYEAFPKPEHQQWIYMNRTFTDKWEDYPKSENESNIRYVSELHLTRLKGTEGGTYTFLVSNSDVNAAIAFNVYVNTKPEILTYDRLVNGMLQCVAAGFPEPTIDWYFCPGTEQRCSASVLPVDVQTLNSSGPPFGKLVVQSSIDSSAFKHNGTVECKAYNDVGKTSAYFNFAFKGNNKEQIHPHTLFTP
T1 sequence (P10721 26-976 limits assumed): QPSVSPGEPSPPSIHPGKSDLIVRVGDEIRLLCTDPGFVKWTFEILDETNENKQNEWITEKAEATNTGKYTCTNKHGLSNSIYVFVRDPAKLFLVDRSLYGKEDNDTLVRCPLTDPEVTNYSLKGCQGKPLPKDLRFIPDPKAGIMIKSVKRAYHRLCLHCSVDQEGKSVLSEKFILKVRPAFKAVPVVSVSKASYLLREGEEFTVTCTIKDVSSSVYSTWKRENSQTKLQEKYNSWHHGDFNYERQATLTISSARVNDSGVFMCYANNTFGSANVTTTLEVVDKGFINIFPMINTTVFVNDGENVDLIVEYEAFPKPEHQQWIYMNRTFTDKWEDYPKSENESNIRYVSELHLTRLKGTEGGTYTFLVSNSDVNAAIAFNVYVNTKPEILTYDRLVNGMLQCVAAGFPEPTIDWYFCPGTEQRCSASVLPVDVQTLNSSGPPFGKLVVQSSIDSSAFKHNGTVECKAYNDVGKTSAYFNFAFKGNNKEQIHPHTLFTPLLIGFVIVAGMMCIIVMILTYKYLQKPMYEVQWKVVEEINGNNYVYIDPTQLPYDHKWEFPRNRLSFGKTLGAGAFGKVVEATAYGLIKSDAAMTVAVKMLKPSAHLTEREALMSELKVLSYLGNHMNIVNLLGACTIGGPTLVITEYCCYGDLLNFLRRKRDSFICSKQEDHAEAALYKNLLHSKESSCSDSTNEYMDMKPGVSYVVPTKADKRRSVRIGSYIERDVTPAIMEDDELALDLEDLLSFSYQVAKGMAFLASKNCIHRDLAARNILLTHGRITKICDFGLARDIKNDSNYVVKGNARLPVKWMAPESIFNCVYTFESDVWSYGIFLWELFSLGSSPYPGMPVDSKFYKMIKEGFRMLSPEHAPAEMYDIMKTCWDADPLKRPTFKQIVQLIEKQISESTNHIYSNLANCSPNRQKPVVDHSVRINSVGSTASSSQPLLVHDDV

Row | Binder | IC50, inhibition of SCF-dependent proliferation of TF-1 cells (CellTiter-Glo), Average [1] [µg/mL] | IC50, inhibition of SCF-dependent proliferation of TF-1 cells (CellTiter-Glo), Experiment #1 [1] [µg/mL] | IC50, inhibition of SCF-dependent proliferation of TF-1 cells (CellTiter-Glo), Experiment #2 [1] [µg/mL] | IC50, inhibition of SCF-dependent proliferation of CD34-positive HSPCs (CellTiter-Glo) [2] [µg/mL] | Kd [3] [nM]
1 | B1 | 0.0473 | 0.0387 | 0.056 | 0.0253 | –
2 | B2 | 0.157 | 0.103 | 0.212 | 0.096 | 1.3
3 | B3 | 0.116 | 0.0648 | 0.168 | 0.0716 | 0.5
4 | B4 | > 0.5 | > 0.5 | > 0.5 | 0.114 | 1.1
5 | B5 | – | – | – | – | 3.7
6 | B6 | – | – | – | – | 0.13
7 | B7 | – | – | – | – | 3.5
8 | B8 | – | – | – | – | 0.3
9 | B9 | – | – | – | – | 0.37
10 | B10 | – | – | – | – | 1.3
11 | B11 | 0.208 | 0.093 | 0.323 | 0.0954 | –
